Data on 31 sequences can be found in the Immune Epitope Database (IEDB).

pIC50, pKd: −log10 of the molar value.

Assay [1] has as its target HLA-A*02:01. The assay can be described thus: IEDB peptide-MHC binding, purified MHC/competitive/fluorescence; ≥ and ≤ were set here for values at or beyond the usual limits of such assays.
In another assay the target is HLA-A*24:02. The description is as above.
A further assay addresses HLA-A*01:01. As to the kind of experiment: IEDB peptide-MHC binding, purified MHC/direct/fluorescence; filed as Kd, often an IC50 or EC50 that approximates it; ≥ and ≤ were set here for values at or beyond the usual limits of such assays.
For assay [2], the target named is HLA-A*02:01. The assay is described as above.
The target in assay [3] is HLA-A*03:01. The assay is described as above.
Another assay has as its target HLA-A*11:01. Described as above.
Another assay concerns the target HLA-A*24:03. The description is as above.
The target of the next assay is HLA-A*26:01. Described as above.
The target in another assay is HLA-A*31:01. The assay is described as above.
In a further assay the target is HLA-A*69:01. Described as above.
Another assay addresses HLA-B*15:01. Described as above.
The next assay has as its target HLA-B*27:05. The description is as above.
The target of a further assay is HLA-B*40:01. The description is as above.
The next assay concerns the target HLA-B*44:02. The description is as above.
A further assay deals with HLA-B*58:01. The description is as above.
In assay [4] the target is HLA-A*03:01. As to the kind of experiment: IEDB peptide-MHC binding, purified MHC/competitive/fluorescence; filed as Kd, often an IC50 or EC50 that approximates it; ≥ and ≤ were set here for values at or beyond the usual limits of such assays.
The target of a further assay is HLA-B*08:02. The assay can be described thus: IEDB peptide-MHC binding, purified MHC/direct/fluorescence; filed as Kd, often an IC50 or EC50 that approximates it; ≥ and ≤ were set here for values at or beyond the usual limits of such assays.
In another assay the target is HLA-B*07:02. Described as above.
Another assay deals with HLA-B*08:01. The assay is described as above.
Assay [5] has as its target HLA-B*46:01. The description is as above.
In another assay the target is HLA-B*18:01. The assay is described as above.
Another assay has as its target HLA-B*57:01. The description is as above.
In a further assay the target is HLA-B*48:01. The description is as above.
The target of assay [6] is HLA-B*46:01. As to the kind of experiment: IEDB peptide-MHC binding, purified MHC/competitive/fluorescence; filed as Kd, often an IC50 or EC50 that approximates it; ≥ and ≤ were set here for values at or beyond the usual limits of such assays. As to conditions: source organism: Yellow fever virus.
[7] abbreviates: source organism: Sudan ebolavirus.
The mark [8] stands for this setting: source organism: Giardia lamblia ATCC 50803.
[9] abbreviates: source organism: Vaccinia virus WR.
[10] abbreviates: source organism: Influenza A virus (A/tiger/Thailand/CU-T6/04(H5N1)).
Setting [11] is: source organism: Influenza A virus(A/swine/Shandong/fZC/2003(H9N2)).
[12] abbreviates: source organism: Yersinia pestis.
[13] abbreviates: source organism: Yersinia pestis CA88-4125.
[14] abbreviates: source organism: Giardia intestinalis.
[15] abbreviates: source organism: Zaire ebolavirus.
[16] abbreviates: source organism: Escherichia coli O157:H7.
The mark [17] stands for this setting: source organism: Escherichia coli.
The mark [18] stands for this setting: source organism: Mammarenavirus lassaense.

Turning to LMHNQNALV, the results for the negative-log IC50 (pIC50) with HLA-A*02:01 [1] (setting [7]) and with HLA-A*24:02 (setting [7]) were 5.94 and ≤ 4.06, respectively.
GMLSSLHTL: the pKd was ≤ 4.70 with HLA-A*01:01 (setting [8]); 7.73 with HLA-A*02:01 [2] (setting [8]); ≤ 4.70 in the assay with HLA-A*03:01 [3] (setting [8]); ≤ 4.70 with HLA-A*11:01 (setting [8]); 6.67 in the assay with HLA-A*24:03 (setting [8]); ≤ 4.70 with HLA-A*26:01 (setting [8]). In addition, the pKd in the assay with HLA-A*31:01 (setting [8]) is ≤ 4.70; with HLA-A*69:01 (setting [8]) it was ≤ 4.70; in the assay with HLA-B*15:01 (setting [8]) it was 6.59; with HLA-B*27:05 (setting [8]), 5.57; with HLA-B*40:01 (setting [8]) it was ≤ 4.70; with HLA-B*44:02 (setting [8]), ≤ 4.70. Besides, the pKd in the assay with HLA-B*58:01 (setting [8]) was 5.30.
EILNTIQFM: the pIC50 in the assay with HLA-A*02:01 [1] (setting [9]) was 5.12; with HLA-A*24:02 (setting [9]) it was ≤ 3.95.
For the sequence RVSSFIRGKK, in the assay with HLA-A*03:01 [4] (source organism: Influenza A virus (A/swine/Italy/2/1979(H1N1))), the pKd was 8.60.
As for RKKLKPRWL, in the assay with HLA-B*08:02 (source organism: Dengue virus 2 Thailand/16681/84), the pKd was ≤ 4.70.
As for TYQWIIRNW, the pKd was ≤ 4.70 in the assay with HLA-A*01:01 (setting [10]); ≤ 4.70 with HLA-A*02:01 [2] (setting [10]); ≤ 4.70 in the assay with HLA-A*03:01 [3] (setting [10]); ≤ 4.70 in the assay with HLA-A*11:01 (setting [10]); 8.60 in the assay with HLA-A*24:03 (setting [10]); ≤ 4.70 with HLA-A*26:01 (setting [11]). In addition, the pKd with HLA-A*31:01 (setting [10]), with HLA-A*69:01 (setting [10]), with HLA-B*07:02 (setting [10]), in the assay with HLA-B*08:01 (setting [10]), in the assay with HLA-B*08:02 (setting [11]) and in the assay with HLA-B*15:01 (setting [10]) was ≤ 4.70 in each case. The pKd with HLA-B*27:05 (setting [10]) was ≤ 4.70; with HLA-B*40:01 (setting [10]), ≤ 4.70; with HLA-B*44:02 (setting [10]), ≤ 4.70; with HLA-B*46:01 [5] (setting [10]), ≤ 4.70; with HLA-B*58:01 (setting [10]), ≤ 5.00.
With QLKSRAAVL, the pKd with HLA-A*01:01 (setting [12]) was ≤ 4.70; with HLA-A*03:01 [3] (setting [12]), ≤ 4.70; with HLA-A*11:01 (setting [12]), ≤ 4.70; with HLA-A*31:01 (setting [12]), ≤ 4.70; in the assay with HLA-A*69:01 (setting [12]), ≤ 4.70; with HLA-B*08:01 (setting [13]) it was 7.47. Further, the pKd with HLA-B*08:02 (setting [13]) was 6.02; in the assay with HLA-B*18:01 (setting [12]), ≤ 4.70; with HLA-B*27:05 (setting [12]), ≤ 4.70; with HLA-B*40:01 (setting [12]) it was ≤ 4.70; in the assay with HLA-B*44:02 (setting [12]), ≤ 4.70; with HLA-B*46:01 [5] (setting [12]), ≤ 4.70. Further, the pKd in the assay with HLA-B*57:01 (setting [12]) and with HLA-B*58:01 (setting [12]) was ≤ 4.70 each time.
Sequence ADIGEWAFW gave a pIC50 with HLA-A*24:02 (setting [7]) of 4.71.
FQWAIQDGI showed a pKd with HLA-B*48:01 (source organism: Cryptosporidium parvum Iowa II) of 7.09.
In the case of GPRRAAWRI, the pKd with HLA-A*01:01 (setting [14]), with HLA-A*02:01 [2] (setting [14]), with HLA-A*03:01 [3] (setting [14]), with HLA-A*11:01 (setting [14]), in the assay with HLA-A*24:03 (setting [8]) and with HLA-A*26:01 (setting [14]) was ≤ 4.70 each time. Further, the pKd was ≤ 4.70 in the assay with HLA-A*31:01 (setting [14]); ≤ 4.70 with HLA-A*69:01 (setting [14]); 7.21 in the assay with HLA-B*07:02 (setting [8]); ≤ 4.70 with HLA-B*08:01 (setting [14]); ≤ 4.70 in the assay with HLA-B*15:01 (setting [14]); ≤ 4.70 with HLA-B*27:05 (setting [14]). For the same sequence, the pKd with HLA-B*40:01 (setting [14]), with HLA-B*44:02 (setting [14]) and with HLA-B*58:01 (setting [14]) was ≤ 4.70 throughout.
Turning to MYRHILRSQ, the pIC50 in the assay with HLA-A*24:02 (setting [15]) is 4.25.
Consider RMKWMMAMR, for which, in the assay with HLA-A*03:01 [4] (source organism: Influenza A virus (A/chicken/Fujian/25/00(H9N2))), the pKd is 7.36.
Consider GLKRGGVLL, for which the pKd with HLA-A*01:01 (setting [16]) is ≤ 4.70; in the assay with HLA-A*02:01 [2] (setting [17]) it was 5.69; in the assay with HLA-A*03:01 [3] (setting [16]), ≤ 4.70; with HLA-A*11:01 (setting [16]) it was ≤ 4.70; with HLA-A*24:03 (setting [17]), ≤ 4.70; in the assay with HLA-A*26:01 (setting [16]), ≤ 4.70. Moreover, the pKd with HLA-A*31:01 (setting [16]) is ≤ 4.70; in the assay with HLA-A*69:01 (setting [16]), ≤ 4.70; in the assay with HLA-B*07:02 (setting [17]), 5.08; with HLA-B*08:01 (setting [16]), ≤ 4.70; with HLA-B*15:01 (setting [17]), 6.04; with HLA-B*27:05 (setting [16]), ≤ 4.70. Further, the pKd with HLA-B*40:01 (setting [16]), in the assay with HLA-B*44:02 (setting [16]) and with HLA-B*58:01 (setting [16]) was ≤ 4.70 each time.
In the assay with HLA-A*03:01 [4] (source organism: Shigella boydii CDC 3083-94), RIHGLGFCY had a pKd of 6.22.
As for KLSSEQLSH, the pKd in the assay with HLA-A*03:01 [4] (setting [8]) was 7.23.
AKCIEYVTL: the pIC50 in the assay with HLA-A*24:02 (source organism: Vaccinia virus Copenhagen) was ≤ 3.76.
In the assay with HLA-B*46:01 [6], WFYDNDNPY had a pKd of 5.93.
Turning to KKKLRPRWL, the pKd with HLA-B*08:02 (source organism: dengue virus type 4) was ≤ 4.70.
Take QYQQLREAA: the pIC50 with HLA-A*24:02 (setting [15]) was ≤ 4.13.
The sequence KRSVMLIGI gave a pIC50 in the assay with HLA-A*24:02 (setting [9]) of 5.03.
HQDNLDTVI had a pKd in the assay with HLA-B*48:01 (source organism: Mycobacterium tuberculosis C) of 5.04.
Regarding KYVDYMSSL, in the assay with HLA-A*24:02 (source organism: West Nile virus), the pIC50 is 6.29.
Sequence RWLGGILPW had a pIC50 in the assay with HLA-A*24:02 (setting [9]) of 7.95.
As to SGSTSPRML, the pIC50 with HLA-A*24:02 (setting [15]) was ≤ 3.73.
Regarding IASMRRNYF, the pKd was 6.40 in the assay with HLA-B*08:01 (source organism: Influenza A virus (A/camel/Mongolia/1982(H1N1))) and 5.65 with HLA-B*08:02 (source organism: Influenza A virus (A/Taiwan/2/2006(H1N1))).
As to AVKYLEGHG, the pIC50 with HLA-A*24:02 (setting [15]) was ≤ 3.93.
For RTKSISSR, in the assay with HLA-A*03:01 [4] (source organism: Influenza A virus (A/swine/Quebec/192/81(H1N1))), the pKd is ≤ 4.70.
Take ILNHKFCNL: the negative-log Kd (pKd) with HLA-A*01:01 (setting [18]) is ≤ 4.70; with HLA-A*03:01 [3] (setting [18]), ≤ 4.70; with HLA-B*07:02 (setting [18]) it was ≤ 4.70; with HLA-B*08:01 (setting [18]) it was 6.85; in the assay with HLA-B*18:01 (setting [18]) it was ≤ 4.70; with HLA-B*27:05 (setting [18]), ≤ 4.70. In addition, the pKd in the assay with HLA-B*40:01 (setting [18]), with HLA-B*44:02 (setting [18]), in the assay with HLA-B*46:01 [5] (setting [18]), with HLA-B*48:01 (setting [18]), with HLA-B*57:01 (setting [18]) and in the assay with HLA-B*58:01 (setting [18]) was ≤ 4.70 each time.
On to EYSKDSRNK, for which the negative-log IC50 (pIC50) in the assay with HLA-A*24:02 (source organism: Vaccinia virus) was ≤ 3.55.
Take MTATLEDDR: in the assay with HLA-A*24:02 (source organism: Variola virus), the pIC50 is 4.83.
With SNSVAQARF, the pIC50 in the assay with HLA-A*24:02 (setting [15]) is ≤ 4.08.

The term pIC50 denotes the negative decadic logarithm of the IC50, by convention in mol/L. Lower therefore signals a high IC50. A word on the pKd: it is −log10 of the Kd, conventionally taken in molar units. Read a high pKd as a small Kd.
